Laboratory results: the supplement of paper PMC9876800

System: peptide library, one residue held at a place counted from the S/T acceptor
Assay: relative phosphorylation of the sub-library (ratio to the mean residue at this position); higher = residue favoured
Settings: human
Method in brief: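 Relative sub-library phosphorylation, a ratio to the mean residue at that position, was obtained by phosphorimaging and densitometry of spots on streptavidin membranes. Before capture, purified recombinant kinases were incubated for 90 min under kinase-specific conditions with 50 μM biotinylated degenerate peptide sub-libraries and 50 μM ATP spiked with γ-32P-ATP. Each sub-library fixed one residue at one position around a central Ser/Thr.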

CDK6, construct: Full length, sequence (Q00534 whole entry, looked up): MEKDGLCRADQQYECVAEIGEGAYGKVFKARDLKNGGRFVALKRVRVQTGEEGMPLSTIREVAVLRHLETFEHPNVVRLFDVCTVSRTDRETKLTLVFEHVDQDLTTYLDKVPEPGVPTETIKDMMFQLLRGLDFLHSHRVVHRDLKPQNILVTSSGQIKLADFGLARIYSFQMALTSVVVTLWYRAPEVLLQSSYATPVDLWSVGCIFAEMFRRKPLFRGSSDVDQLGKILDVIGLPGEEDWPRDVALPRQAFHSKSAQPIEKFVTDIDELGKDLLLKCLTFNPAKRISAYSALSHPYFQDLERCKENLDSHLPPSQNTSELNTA

CDK6, construct: Full length (from UniProt Q00534)
relative phosphorylation
Settings | at +1 | at +2 | at +3 | at +4 | at -1 | at -2 | at -3 | at -4 | at -5
A fixed | 0.249 | 0.659 | 0.594 | 0.709 | 0.827 | 0.895 | 1.21 | 1.02 | 1.04
D fixed | 0.113 | 0.259 | 0.209 | 0.504 | 0.48 | 0.316 | 0.476 | 0.884 | 0.866
E fixed | 0.11 | 0.238 | 0.174 | 0.424 | 0.473 | 0.406 | 0.66 | 0.859 | 0.909
F fixed | 0.353 | 0.811 | 0.529 | 0.795 | 0.908 | 1.1 | 0.978 | 0.852 | 0.979
G fixed | 1.39 | 0.731 | 0.681 | 1.15 | 1.29 | 0.73 | 1.42 | 1.04 | 1.23
H fixed | 0.295 | 1.24 | 1.06 | 1.23 | 1.11 | 1.16 | 1.2 | 1.11 | 1.18
I fixed | 0.308 | 1.04 | 0.461 | 0.746 | 0.493 | 0.878 | 0.932 | 0.757 | 0.669
K fixed | 0.303 | 1.83 | 3.16 | 1.64 | 1.23 | 0.788 | 1.03 | 1.35 | 1.57
L fixed | 0.344 | 1.1 | 0.458 | 0.785 | 1.14 | 1.29 | 1.08 | 0.85 | 0.773
M fixed | 0.328 | 1.01 | 0.581 | 0.891 | 1.28 | 1.5 | 1.03 | 0.867 | 0.736
N fixed | 0.211 | 0.885 | 0.747 | 0.957 | 0.746 | 0.783 | 0.827 | 1.19 | 1.04
P fixed | 11.6 | 0.494 | 0.862 | 1.01 | 1.26 | 2.2 | 1.15 | 1.07 | 1.24
Q fixed | 0.258 | 0.905 | 0.702 | 1.03 | 1.04 | 0.894 | 0.865 | 1.05 | 0.99
R fixed | 0.31 | 3.29 | 5 | 2.44 | 1.78 | 0.969 | 1.33 | 1.15 | 1.31
V fixed | 0.315 | 0.956 | 0.513 | 0.724 | 0.64 | 0.835 | 0.886 | 0.673 | 0.68
W fixed | 0.285 | 0.665 | 0.58 | 1.13 | 1.08 | 1.06 | 0.92 | 1.25 | 0.721
Y fixed | 0.24 | 0.887 | 0.688 | 0.829 | 1.23 | 1.19 | 1.02 | 1.05 | 1.06
pThr fixed | 0.326 | 0.502 | 0.433 | 0.336 | 0.25 | 0.548 | 0.725 | 0.882 | 0.934
pTyr fixed | 0.339 | 0.36 | 0.486 | 0.349 | 0.324 | 0.798 | 0.81 | 1.12 | 1.34
